Target: catalase from Serratia sp. strain I1P (Serratia sp. strain I1P)
Assay: SEC; Superdex-200 in 50 mM Tris HCl pH 8.0 with 0.2 M NaCl, calibrated with standard proteins; native apparent mass compared with the subunit mass by SDS-PAGE

In the case of “catalase from Serratia sp. strain I1P (enzyme)”, the stoichiometry N is reported as 4.

— publication PMC7022778
